Test [1] addresses membrane-bound human FcγRIIB on Raji cells (human) (UniProt P31994). Put plainly: FACS on Raji cells, aggregated Beriglobin at 2.5 (µg/µL).
Test [2] shares this target. Briefly: FACS on Raji cells, aggregated Beriglobin at 5.0 (µg/µL).
The target is the same in test [3]. Put plainly: FACS on Raji cells (FACS021), constant aggregated IgG; no competitor (IMP series).
For test [4] the target is unchanged. Put plainly: FACS on Raji cells (FACS007), constant aggregated IgG; competitor SM101 0.25 µg/µL.
Test [5] shares this target. Briefly: FACS on Raji cells (FACS007), constant aggregated IgG; competitor SM101 0.03125 µg/µL.
Test [6] shares this target. Put plainly: FACS on Raji cells (FACS021), constant aggregated IgG; competitor SM101 IMP 0.25 µg/µL.
Test [7] has the same target. Put plainly: FACS on Raji cells (FACS021), constant aggregated IgG; competitor SM101 IMP 0.125 µg/µL.
For test [8] the target is unchanged. Put plainly: FACS on Raji cells (FACS021), constant aggregated IgG; competitor SM101 IMP 0.0156 µg/µL.
The target is the same in test [9]. Put plainly: FACS on Raji cells (FACS021), constant aggregated IgG; competitor SM101 Ref. Std. 0.5 µg/µL.
Test [10] has the same target. Briefly: FACS on Raji cells (FACS021), constant aggregated IgG; competitor SM101 Ref. Std. 0.25 µg/µL.
Test [11] has the same target. Put plainly: FACS on Raji cells, aggregated Beriglobin at 5.0 (µg/µL); mean of three batches.
Test [12] shares this target. Put plainly: FACS on viable Raji cells (FcγRIIB) with aggregated Beriglobin and no SM101; detected with anti-human IgG(H+L)-PE secondary antibody.
For test [13] the target is unchanged. Put plainly: FACS: 0.1E6 Raji cells (FcγRIIB) with 2.5 µg aggregated Beriglobin at the stated pH; 1/200 anti-human IgG(H+L)-PE; secondary antibody alone in this panel 173. A general note: Flow cytometry measures light scatter and fluorescence of single cells or particles in a stream.
The target is the same in test [14]. Briefly: FACS: 0.1E6 Raji cells (FcγRIIB) with 2.5 µg aggregated Beriglobin at the stated pH; 1/200 anti-human IgG(H+L)-PE; secondary antibody alone in this panel 173; pH 6.7.
For test [15] the target is unchanged. Put plainly: FACS: 0.1E6 Raji cells (FcγRIIB) with 2.5 µg aggregated Beriglobin at the stated pH; 1/200 anti-human IgG(H+L)-PE; drawn table, secondary antibody control not subtracted; pH 7.2.

Where “and” joins values, the source holds several entries; their conditions need not be identical. Equal values may be shown once.

Sequence of UniProt P31994 (P31994 43-310): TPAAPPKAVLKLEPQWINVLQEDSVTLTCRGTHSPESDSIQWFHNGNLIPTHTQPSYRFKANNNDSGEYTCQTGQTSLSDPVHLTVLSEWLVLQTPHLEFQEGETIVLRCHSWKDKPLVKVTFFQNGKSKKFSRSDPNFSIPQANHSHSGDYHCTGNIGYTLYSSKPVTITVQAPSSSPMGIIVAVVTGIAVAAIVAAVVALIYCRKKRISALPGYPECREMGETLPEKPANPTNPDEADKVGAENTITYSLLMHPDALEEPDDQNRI

Turning to “aggregated human IgG (aggregated Beriglobin, aggregated fraction isolated by size exclusion chromatography) (antibody)”, the Median MFI is 1350 and 1500 and 1000 in test [1]; 1230 and 1140 and 960 in [2]. Also, the Median Signal in [3] came to 6930; in test [4], 197; in test [5], 1240; in test [6], 281; in [7], 478; in test [8], 3810. Also, the Median Signal in test [9] came to 182; in test [10], 269. The Median MFI (mean) in [11] is 1110. The percent of gated viable cells in the upper right quadrant of the dot plot (PE-A above about 10^3) in test [12] amounted to 84.7. The Median MFI at pH 7.0 (left panel) in test [13] is 599. In test [13], this substance yielded a Median MFI at pH 7.8 (left panel) of 363. The substance also displayed a Median MFI at pH 8.0 (left panel) in test [13] of 348. The substance further had a Median MFI at pH 6.7 (left panel) in [14] of 578. The Median MFI at pH 7.2 in test [15] was 561.

(Values after patent publication US20160195541A1.)
